Publication PMC9516175

What follows are substances tested on VIRP1 (Arabidopsis thaliana) (assay: EMSA).

Substance	binding signal (% of WT shifted)
HSVd WT	100
PSTVd WT	100
Q-satRNA WT	100
